Results on 140 substances are retold here after the supplement of paper PMC12042874.

± gives the uncertainty stated by the source.

The data set can be described thus: amyloid nucleation score (Sup35N fusion, yeast selection) (log enrichment); library NNK2; higher = more nucleation; inactive = no reads after selection. The gist of the method: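 Nucleation score: DiMSum log enrichment of output over input reads, centred on the mode score of non-aggregating sequences. Only sequences with at least 100 input reads were kept. Reads came from Illumina sequencing of plasmid inserts before and after 7 days of growth at 30°C without adenine and uracil, in psi-negative yeast expressing Sup35N fused to peptides of 20 random codons after 24 hours of induction with 100 μM copper sulfate.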
The substance SNCRTSFIQMVVYDCFGSFF yielded an amyloid nucleation score of 4.74 ± 0.09. Substance SNCVCSRIVCCVRMGTGL gave an amyloid nucleation score of 9.908 ± 0.042. With SNGLMSACRWYLPAFLED, the amyloid nucleation score result is “inactive”. As for SNGYGRLAQLVGGWRDTKGG, the amyloid nucleation score turned out to be 0.398 ± 0.29. Turning to SNIVSWVIEDGVRKC, the amyloid nucleation score is 4.5 ± 0.049. For the substance SNLEFNLE, the amyloid nucleation score was -0.747 ± 0.37. As for SNLFCLNTSLVQAVMMACPI, the amyloid nucleation score came to 0.113 ± 1.1. As to SNNNAIVNRSRIIRHFMNYC, the amyloid nucleation score was -0.604 ± 0.56. As for SNQCTWNDYSG, the amyloid nucleation score was -0.565 ± 0.64. With SNQMWLMVCRVE, the amyloid nucleation score came to 0.112 ± 0.19. For the substance SNRWPGTFLASETNVLLE, the amyloid nucleation score is -0.224 ± 0.32. In the case of SNSGMTVKCNYVYSFVTGKS, the amyloid nucleation score worked out at 0.816 ± 0.21. Consider SNSMLASIVNHPSVSVMFFV, for which the amyloid nucleation score is 6.035 ± 0.047. In the case of SNVQGLACETTGMARGMWSE it was 0.597 ± 0.17. For SNYVY, the amyloid nucleation score was -0.161 ± 1.1. SPHNTARLESAEDQSSMCEP came in with an amyloid nucleation score of 1.55 ± 0.23. On to SPKMF, for which the amyloid nucleation score was -0.564 ± 0.46. Consider SPQRFDLGYGVYVCDTPK, for which the amyloid nucleation score was -0.231 ± 0.38. For SPSEYLLVAYMSHLTENETV, the amyloid nucleation score was -0.064 ± 0.45. On to SPSHGVRNP, for which the amyloid nucleation score was 1.51 ± 0.34.

SPTRFFQLFQADGNSNRGDV: the amyloid nucleation score was -0.519 ± 1. SPVLIAYQGMAKDWGLVING gave an amyloid nucleation score of 0.139 ± 0.56. SQFSPNDLLLGSWKSDCPWR: the amyloid nucleation score is -0.917 ± 0.54. In the case of SQITYVFYFRRGFIMLMWWE it was -0.323 ± 0.79; in that of SQLFTVLSKS, -0.062 ± 0.35. The result for SQWDKTVT reads -0.986 ± 0.55; that for SRCGIWPWLRHDKVD, 0.853 ± 0.18; that for SRCMILFFRFIVSRYEVKSL, 1.77 ± 0.12.

In the case of SREIWRLYDI, the amyloid nucleation score was -0.124 ± 0.8.

SREYLSRFVTFYLMYFYAKS: the amyloid nucleation score was -0.516 ± 0.64. SRHGMSLASR: the amyloid nucleation score is -0.024 ± 0.46.

For SRHYYRFHTFAVVGWLSLYW, the amyloid nucleation score is -0.849 ± 1.1. The result for SRKGVTLLVLNNSLTHRSCN reads 3.72 ± 0.049; that for SRKKVMHYDFLVSGVVTHRW, “inactive”; that for SRLSLIFDSIYLCS, 2.97 ± 0.15. In the case of SRLVFS, the amyloid nucleation score entry is “inactive”. SRMVDR: the amyloid nucleation score is 0.345 ± 0.45. In the case of SRNNCRCD it was -1.17 ± 1.1; in that of SRPWNYCRDLWTSVHTGLLS, 0.547 ± 0.36; in that of SRQVTSCVVRRSQCIWSG, 1.2 ± 0.27. In the case of SRRFFVCL it was “inactive”; in that of SRSFASPRYELMLATRTHEK, 0.966 ± 0.57. With SRSGCHYCAVYTQIVLPRAP, the amyloid nucleation score worked out at 8.711 ± 0.081.

As to SRSLWYVLNYYV, the amyloid nucleation score turned out to be 0.062 ± 0.29. The result for SRSQPVICWNTWFVTWYESS reads 8.914 ± 0.075; that for SRSSGTDFMYFDRFLPTRWA, -0.805 ± 1.1. Substance SRSVNCAVFNADSLCPKLWL yielded an amyloid nucleation score of 4.81 ± 0.11.

SRWIGSECNPNCNLSVSYIL yielded an amyloid nucleation score of 4.87 ± 0.057. In the case of SSCISHGGRK it was -0.546 ± 0.45; in that of SSCIWLVFKCSWFGF, 4.421 ± 0.029; in that of SSCKARMVFMLGRYGSGRNL, 0.112 ± 0.79. SSDATCGVDGHFRLLITHCG had an amyloid nucleation score of 5.9 ± 0.075. The result for SSFIQGCQDSDTNFGGTSSC reads “inactive”.

Turning to SSGGMVKHYPKIQLSSVWVF, the amyloid nucleation score is 0.238 ± 0.64.

As to SSIGMVDIVKTLMGK, the amyloid nucleation score is -0.089 ± 0.61. Take SSIGYVDYAEFEAGFFIYIV: the amyloid nucleation score was -0.823 ± 0.44.

As to SSLRKRRLVVRNVAKSRMFL, the amyloid nucleation score was determined as 2.14 ± 0.31. In the case of SSLWTCGFIELRPRVLSMGS it was 0.327 ± 0.57; in that of SSQSHGGRFQIEYFW, -0.059 ± 0.33; in that of SSRSDAIFIAICLNFIKGKM, 1.32 ± 0.33. Consider SSRYSVIVVYMMGAPSLVGQ, for which the amyloid nucleation score entry is “inactive”.

Take SSSNLG: the amyloid nucleation score entry was “inactive”. SSSRGRVCP registered an amyloid nucleation score of 0.012 ± 0.63. Consider SSTAVSQILH, for which the amyloid nucleation score entry is “inactive”. SSVSRLR: the amyloid nucleation score was -0.277 ± 0.74.

For the substance SSWKCIIYNPQCEVPTGEQE, the amyloid nucleation score was -0.289 ± 0.49. In turn, SSYLPLQSTAIGHHSSRYGL displayed an amyloid nucleation score of 1.08 ± 0.34. STATHSWGCFSWNSCFHGRQ yielded an amyloid nucleation score of 9.493 ± 0.05. In turn, STCFVCFFTYVNSYIVLFT displayed an amyloid nucleation score of 5.63 ± 0.082.

On to STELFLS, for which the amyloid nucleation score is -0.251 ± 0.28. STEQLLQVHNTHGRPWSRLS displayed an amyloid nucleation score of 1.32 ± 0.32. In the case of STFDPCLRHPLIMCFYSVCA it was 0.014 ± 0.46. Regarding STGILRS, the amyloid nucleation score result was “inactive”.

In the case of STGRNMKPSLNASFLRLRMF, the amyloid nucleation score was -0.228 ± 1.1. In the case of STICFG, the amyloid nucleation score is -0.541 ± 1. In the case of STLVIVCFYICRHFSTYRVR it was -0.832 ± 0.32; in that of STLWVAKGH, -0.064 ± 1.1. On to STNCFRAFTHYPMYIGCVVM, for which the amyloid nucleation score was -0.159 ± 0.8. STNVMLLSFSHMYHSYVLLG: the amyloid nucleation score is -0.261 ± 0.63. Take STPLILVRCNSYL: the amyloid nucleation score was -0.456 ± 0.28.

Consider STRSGGLKQSVPLSRPP, for which the amyloid nucleation score is -0.325 ± 0.42.

With STSECLK, the amyloid nucleation score entry was “inactive”. Consider STSKDLMYDCL, for which the amyloid nucleation score result is “inactive”. For the substance STTGYSVWFVA, the amyloid nucleation score was -1.19 ± 0.62. The result for STTYFDVCMVGFWYNFSTWG reads -0.994 ± 1.1; that for STVEVRGYLDAVMVGVVSNS, 3.8 ± 0.052; that for STVGEVYVGLALMDVWGMEW, 0.559 ± 0.32. In the case of STYNCFTGADRSLL, the amyloid nucleation score was 0.94 ± 0.67. For SVAVPWGFTSYSCVRLGGFN, the amyloid nucleation score came out at 3.06 ± 0.14. In the case of SVCMRIKFWSPAPDAEHEKA it was 6.614 ± 0.056.

For SVDNGYVFSLVDPREYRFHL, the amyloid nucleation score was -0.813 ± 0.76. The result for SVDVKPVTQMTGTMVESTGS reads 1.17 ± 0.28; that for SVFFGFWDTHAAAYMHGVFM, “inactive”; that for SVHRERWMFYIFVCTLVVRG, 0.056 ± 0.43. In the case of SVICELLQDRFTSLHGMYGY, the amyloid nucleation score is 0.119 ± 0.31.

Substance SVIDDHKKVKSGITRSYREK yielded an amyloid nucleation score of 0.504 ± 0.15. As for SVLERPCMS, the amyloid nucleation score was found to be 0.176 ± 0.76.

In turn, SVLNGAAGMYWCW registered an amyloid nucleation score of 0.107 ± 0.46.

Take SVLRSNRIVDLSIL: the amyloid nucleation score entry was “inactive”. Substance SVMPMRYLVCVILLGRRSRT registered an amyloid nucleation score of 0.765 ± 0.16. As for SVRKRKSNNAIPANAPNKI, the amyloid nucleation score was determined as 0.513 ± 0.35. SVSCIKFIHSLAEYGMSKEN gave an amyloid nucleation score of 0.697 ± 0.16. In the case of SVSSKGNLGA, the amyloid nucleation score came out at 0.11 ± 0.22. SVTPWTMNNSQYILMAYRVK showed an amyloid nucleation score of 0.283 ± 0.34. With SVVAVFLKYCVVADSATGV, the amyloid nucleation score worked out at 0.001 ± 0.76.

SVVFKNSVWYSITNHNIMSL came in with an amyloid nucleation score of 1.57 ± 0.29.

With SVVWCWCSEW, the amyloid nucleation score is 0.602 ± 0.81. For SVVWFNTMYLYDWLHKPICI, the amyloid nucleation score result is “inactive”.

As to SVWTFLTCI, the amyloid nucleation score came to 0.906 ± 0.46. As for SVWVCPPLFGQMCAGVTNNR, the amyloid nucleation score is -0.014 ± 0.41. In the case of SVYGKFLYF it was 2.23 ± 0.11; in that of SVYVVGFLCQGYSSLRSLVA, 4.42 ± 0.089; in that of SWCACSLGSQYGTMSGWLLY, 0.162 ± 0.37. Consider SWCCGCFLLCVPRTVSSFVR, for which the amyloid nucleation score was found to be 0.167 ± 0.39. Turning to SWGNLWKSYCAK, the amyloid nucleation score is -0.55 ± 0.49. SWIIGVWIR: the amyloid nucleation score is -0.287 ± 0.45. In the case of SWLSQKSLESALRAIMNGKY it was 2.13 ± 0.16. As to SWLVDPTLGTRLSFTVMYRC, the amyloid nucleation score was found to be 0.053 ± 1.1. As to SWNIFPQSNLKSKWDTIRCL, the amyloid nucleation score is -2.46 ± 0.62. SWRNSKISMPNSAFTSQDTV registered an amyloid nucleation score of 0.052 ± 0.31. For the substance SWSAIEPQVPKYYYSL, the amyloid nucleation score was -0.623 ± 0.79. As for SWTLFKTLMWIRHILFVECR, the amyloid nucleation score is -0.973 ± 0.55. SYCKPTVIACVMLSCQQ yielded an amyloid nucleation score of 8.866 ± 0.067.

With SYCSLVFLTDISSYIGFQCV, the amyloid nucleation score came out at 5.16 ± 0.078. As for SYFNVNWARFQVGYSLIVCL, the amyloid nucleation score was determined as 6.131 ± 0.04. For SYGDRLALQR, the amyloid nucleation score amounted to 0.546 ± 0.8. SYLCDPLRETTYSPKYLRST came in with an amyloid nucleation score of 0.667 ± 0.38. SYLFVSVDLHFIEVFYR showed an amyloid nucleation score of 1.44 ± 0.12.

Take SYLKYVDWQTFKVTWCAGGN: the amyloid nucleation score is -0.38 ± 0.54.

SYLSCGQKKHWCWPKVDSFR: the amyloid nucleation score was -0.444 ± 0.42.

SYNYLYILRCYYLDVHSFRT: the amyloid nucleation score is -0.788 ± 0.76. As for SYPAKDRNLYDCYLCPVSYL, the amyloid nucleation score is -1.16 ± 0.61. In the case of SYPDELNLEFGCYHQSWTYF it was 3.67 ± 0.058; in that of SYRNTIWVSINALGVSWEAS, 2.52 ± 0.078.

Regarding SYSLRFWYIPVADFWLL, the amyloid nucleation score is -0.938 ± 0.36. With SYTNLGPAGCVALSKYSVIR, the amyloid nucleation score is -1.18 ± 1.1. Turning to SYVCRIERADVACWVKEEGA, the amyloid nucleation score was 0.857 ± 0.28. The result for SYVFAPWFLVILPKSISMD reads 4.58 ± 0.079; that for SYVGMFRTLDVKLRLNKCGY, -0.038 ± 1.1; that for SYYFLLLFVQT, -0.017 ± 0.76.
